We go through 20 molecules from patent US20210079089A1 (SURROZEN OPERATING, published 2021).

In general, Kd refers to a measure of binding affinity in units of concentration. Lower therefore signals a tighter complex.

The target of one test is T1, biotinylated-LRP6 CRD (UniProt O75581 631-1246, limits assumed, biotinylated).
T1 construct: LRP6 has no CRD
T1 sequence (looked up): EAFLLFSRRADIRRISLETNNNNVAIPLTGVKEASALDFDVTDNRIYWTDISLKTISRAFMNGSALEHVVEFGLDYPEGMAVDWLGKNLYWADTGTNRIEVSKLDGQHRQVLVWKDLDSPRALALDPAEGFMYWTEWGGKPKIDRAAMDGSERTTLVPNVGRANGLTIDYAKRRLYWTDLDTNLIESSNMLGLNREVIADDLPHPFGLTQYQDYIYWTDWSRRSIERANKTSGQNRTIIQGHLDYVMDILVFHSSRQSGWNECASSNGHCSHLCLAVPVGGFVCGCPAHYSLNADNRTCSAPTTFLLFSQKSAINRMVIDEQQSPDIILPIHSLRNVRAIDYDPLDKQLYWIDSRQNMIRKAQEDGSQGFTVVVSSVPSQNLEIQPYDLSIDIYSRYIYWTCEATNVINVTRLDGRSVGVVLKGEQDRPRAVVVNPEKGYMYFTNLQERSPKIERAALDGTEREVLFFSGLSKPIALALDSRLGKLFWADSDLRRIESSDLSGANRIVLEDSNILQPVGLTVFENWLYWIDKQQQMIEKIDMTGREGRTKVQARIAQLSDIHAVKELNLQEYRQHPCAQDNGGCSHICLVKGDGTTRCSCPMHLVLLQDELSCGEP
In words: Octet BLI, biotinylated LRP6. The protocol:
(§1) Binding kinetics of antibody fragments to LRP5 extracellular domain (LRP5 ECD) and/or LRP6 extracellular domain (LRP6 ECD) protein targets was determined by bio-layer interferometry (BLI) using Octet Red 96 (PALL ForteBio, Fremont, Calif.) instruments at 30° C., 1000 rpm with streptavidin (SA) biosensors. C-terminal biotinylated LRP ECD recombinant protein was diluted to 20 nM in the running buffer (PBS, 0.05% Tween-20, 0.5% BSA, pH 7.2) and captured to the SA biosensor until coupling length reached 0.2 nm. Following capture of the LRP5 or LRP6, the SA biosensor with captured biotinylated-LRP5 or biotinylated LRP6 was dipped into wells containing the relevant antibody fragment at […] (0, 1.37, 4.12, 12.4, 37, 111.1, 333.3, 1000 nM) in running buffer, plus a well with only running buffer as a reference channel. KD was determined by global fitting, 1:1 binding model according to manufacturer recommended settings.
One antibody fragment, 009S-E04, was selected for alanine-scanning mutagenesis of CDRs, and the respective LRP6 binding affinities of the various mutants were determined by Octet BLI as described in Example 1.

For test [1], the target named is T2, LRP6E3E4_O75581_631-1246 (Homo sapiens (Human), UniProt O75581 631-1246, biotinylated in the BLI/SPR assays (C-terminal biotin acceptor peptide)).
T2 construct: The entry holds residues 631-1246 of UniProt O75581 followed by a biotin acceptor peptide and eight His
T2 sequence: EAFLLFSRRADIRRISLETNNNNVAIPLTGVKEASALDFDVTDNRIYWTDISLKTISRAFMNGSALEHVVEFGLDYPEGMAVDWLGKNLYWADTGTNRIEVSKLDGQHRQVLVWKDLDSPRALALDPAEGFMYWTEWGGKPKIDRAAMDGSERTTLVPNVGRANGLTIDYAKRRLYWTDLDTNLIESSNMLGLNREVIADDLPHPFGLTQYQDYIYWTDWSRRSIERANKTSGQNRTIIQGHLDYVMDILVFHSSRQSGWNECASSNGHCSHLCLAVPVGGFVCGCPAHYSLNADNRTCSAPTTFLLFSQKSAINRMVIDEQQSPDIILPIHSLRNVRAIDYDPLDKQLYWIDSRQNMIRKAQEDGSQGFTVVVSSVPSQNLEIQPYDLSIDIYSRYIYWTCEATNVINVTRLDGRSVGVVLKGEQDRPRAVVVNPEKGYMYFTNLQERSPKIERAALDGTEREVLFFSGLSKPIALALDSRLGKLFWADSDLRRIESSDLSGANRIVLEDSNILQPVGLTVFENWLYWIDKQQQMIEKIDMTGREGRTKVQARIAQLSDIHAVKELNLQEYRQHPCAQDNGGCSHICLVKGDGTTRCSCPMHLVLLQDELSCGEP
As to the kind of experiment: Octet BLI, affinity class. The protocol: as §1
(In general: In BLI a coated tip is dipped into the sample, and binding shifts an interference pattern.)

In test [2] the target is T2, LRP6E3E4_O75581_631-1246. As to the kind of experiment: Octet BLI or BIAcore SPR.
For test [3], the target named is T3, LRP6e1e2 (UniProt O75581 20-630, limits assumed, C-terminally biotinylated).
T3 construct: domain: E1E2; also called LRP6 E1E2 domains
T3 sequence (looked up): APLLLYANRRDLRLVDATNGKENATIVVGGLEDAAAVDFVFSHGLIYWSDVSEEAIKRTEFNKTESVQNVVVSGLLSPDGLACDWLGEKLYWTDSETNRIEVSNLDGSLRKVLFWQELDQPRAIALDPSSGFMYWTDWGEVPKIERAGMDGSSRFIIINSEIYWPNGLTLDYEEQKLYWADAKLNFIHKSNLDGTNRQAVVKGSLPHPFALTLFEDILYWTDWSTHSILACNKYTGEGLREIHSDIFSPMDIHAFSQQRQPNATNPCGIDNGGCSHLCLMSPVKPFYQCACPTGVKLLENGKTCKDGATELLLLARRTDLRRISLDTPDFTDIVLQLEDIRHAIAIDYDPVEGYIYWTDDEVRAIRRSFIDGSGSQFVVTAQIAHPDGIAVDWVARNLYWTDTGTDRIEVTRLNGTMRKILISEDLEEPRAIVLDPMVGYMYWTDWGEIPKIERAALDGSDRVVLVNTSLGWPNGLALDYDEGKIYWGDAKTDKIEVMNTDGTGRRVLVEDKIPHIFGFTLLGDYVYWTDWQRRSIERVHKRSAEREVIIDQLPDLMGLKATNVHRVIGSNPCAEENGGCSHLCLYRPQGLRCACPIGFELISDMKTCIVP
In words: Octet BLI or BIAcore SPR.

Test [4] deals with T3, LRP6e1e2. In words: Octet BLI, affinity class. The procedure:
as §1

B1: 009S-E04 K1A (VHH)
VHH: DVQLVESGGGLVQAGGSLRLACAGSGRIFAIYDIAWYRHPPGNQRELVAMIRPVVTEIDYADSVKGRFTISRNNAMKTVYLQMNNLKPEDTAVYYCNAARPWGSRDEYWGQGTQVTVSS
Take B1: the Kd in the test with biotinylated-LRP6 CRD was < 100 nM.

B2: 009S-E04 D8A (VHH)
VHH: DVQLVESGGGLVQAGGSLRLACAGSGRIFAIYDIAWYRHPPGNQRELVAMIRPVVTEIDYADSVKGRFTISRNNAMKTVYLQMNNLKPEDTAVYYCNAKRPWGSRAEYWGQGTQVTVSS
On to B2, for which, in the test with biotinylated-LRP6 CRD, the Kd was < 100 nM.

B3: 009S-E04 S6A (VHH)
VHH: DVQLVESGGGLVQAGGSLRLACAGSGRIFAIYDIAWYRHPPGNQRELVAMIRPVVTEIDYADSVKGRFTISRNNAMKTVYLQMNNLKPEDTAVYYCNAKRPWGARDEYWGQGTQVTVSS
For B3, the Kd with biotinylated-LRP6 CRD was < 100 nM.

B4: 009S-E04 Y10A (VHH)
VHH: DVQLVESGGGLVQAGGSLRLACAGSGRIFAIYDIAWYRHPPGNQRELVAMIRPVVTEIDYADSVKGRFTISRNNAMKTVYLQMNNLKPEDTAVYYCNAKRPWGSRDEAWGQGTQVTVSS
In the case of B4, the Kd with biotinylated-LRP6 CRD is < 100 nM.

B5: 009S-E04 E9A (VHH)
VHH: DVQLVESGGGLVQAGGSLRLACAGSGRIFAIYDIAWYRHPPGNQRELVAMIRPVVTEIDYADSVKGRFTISRNNAMKTVYLQMNNLKPEDTAVYYCNAKRPWGSRDAYWGQGTQVTVSS
As for B5, the Kd with biotinylated-LRP6 CRD is < 100 nM.

B6: 009S-E04 G5A (VHH)
VHH: DVQLVESGGGLVQAGGSLRLACAGSGRIFAIYDIAWYRHPPGNQRELVAMIRPVVTEIDYADSVKGRFTISRNNAMKTVYLQMNNLKPEDTAVYYCNAKRPWASRDEYWGQGTQVTVSS
Turning to B6, the Kd with biotinylated-LRP6 CRD was < 100 nM.

B7: 009S-E04 R7A (VHH)
VHH: DVQLVESGGGLVQAGGSLRLACAGSGRIFAIYDIAWYRHPPGNQRELVAMIRPVVTEIDYADSVKGRFTISRNNAMKTVYLQMNNLKPEDTAVYYCNAKRPWGSADEYWGQGTQVTVSS
For the molecule B7, the Kd with biotinylated-LRP6 CRD is < 100 nM.

B8: 009S-E04 R2A (VHH)
VHH: DVQLVESGGGLVQAGGSLRLACAGSGRIFAIYDIAWYRHPPGNQRELVAMIRPVVTEIDYADSVKGRFTISRNNAMKTVYLQMNNLKPEDTAVYYCNAKAPWGSRDEYWGQGTQVTVSS
As to B8, the Kd with biotinylated-LRP6 CRD is < 100 nM.

B9: 009S-E04 W4A (VHH)
VHH: DVQLVESGGGLVQAGGSLRLACAGSGRIFAIYDIAWYRHPPGNQRELVAMIRPVVTEIDYADSVKGRFTISRNNAMKTVYLQMNNLKPEDTAVYYCNAKRPAGSRDEYWGQGTQVTVSS
As to B9, the Kd with biotinylated-LRP6 CRD is < 100 nM.

B10: 009S-E04 P3A (VHH)
VHH: DVQLVESGGGLVQAGGSLRLACAGSGRIFAIYDIAWYRHPPGNQRELVAMIRPVVTEIDYADSVKGRFTISRNNAMKTVYLQMNNLKPEDTAVYYCNAKRAWGSRDEYWGQGTQVTVSS
With B10, the Kd in the test with biotinylated-LRP6 CRD was < 100 nM.

B11: 009S-A05 (VHH)
VHH: AVQLVDSGGGLVQAGDSLTLSCAASGRTFSDYSMGWFRQAPGKEREFVAGISWIADNRYYADVVKGRFTISRDNAKNTVYLQMNSLKPEDTAVYYCTAGRSRYLYGSSLNGPYDYWGQGTQVTVSS
With B11, the Kd in the test with LRP6E3E4_O75581_631-1246 [1] and with LRP6E3E4_O75581_631-1246 [2] was > 500 nM each time.

B12: 013S-G04 (HC SEQ ID NO 19) (VHH)
VHH: AVQLVESGGGLVQAGGSLRLACAGSGRIFAIYDIAWYRQAPGNQRELVATIRPVVSETTYADAVKGRFTISRSNAMKTVYLQMNSLKSEDTAIYYCNAKRPWGTRDEYWGQGTLVTVSS
Take B12: in the test with LRP6E3E4_O75581_631-1246 [2], the Kd is < 500 nM.

B13: 009S-F04 (VHH)
VHH: AVQLVESGGGVVQAGDSLTLSCTMSGRSLSSFAMGWFRRAPGKEREFVARISRGDGYTDEADSVKGRFTISRDNAKNTVYLQMNNVGPEDTAVYHCAAVQAVIGGTLTTAYDYWGQGTLVTVSS
With B13, the Kd in the test with LRP6E3E4_O75581_631-1246 [1] and with LRP6E3E4_O75581_631-1246 [2] was > 500 nM in each case.

B14: 013S-A05 (VHH)
VHH: EVQLVESGGGLVQAGGSLRLSCATSGRTFNTYAMGWFRQAPGKEREFVASVSWRYDRTYYTDTVKGRFTISRDNAKNTVYLQMNSLKPEDTAVYFCAADTNWRAGPRVGIDEYAYWGQGTLVTVSS
Turning to B14, in the test with LRP6E3E4_O75581_631-1246 [2], the Kd was > 500 nM.

B15: 013S-D05 (HC SEQ ID NO 23) (VHH)
VHH: QVKLEESGGGLVQAGGSLRLSCAASGRIFSIYDMGWFRQAPGKEREFVSGIRWSGGTSYADSVKGRFTISKDNAKNTIYLQMNNLKAEDTAVYYCGSRGYWGQGTLVTVSS
Regarding B15, in the test with LRP6E3E4_O75581_631-1246 [2], the Kd was < 500 nM.

B16: 001S-F11 (VHH)
VHH: QVQLVESGGGLVQAGGSLRLSCAASGRTFSSYAMSWFRQAPGKEREFVAVIGRSGGIKYYADSVKGRFTISRDNTINTVYLQMNNLTPEDTAIYYCATRRPFNSYNTEQSYDSWGRGTLVTVSS
As to B16, the Kd with LRP6e1e2 [3] was < 500 nM.

B17: 009S-A03 (VHH)
VHH: QVQLVESGGGLVQAGDSLRLSCVVSGRTFSVYGVGWFRQAPGKEREVVAAVSASGGYTWYADSVKGRFTISRDNAKSTAFLQMNSLQPEDTAVYYCKAAPRWGGATAYWGQGTQVTVSS
Turning to B17, the Kd is < 500 nM with LRP6e1e2 [4], > 500 nM with LRP6E3E4_O75581_631-1246 [1] and < 500 nM with LRP6e1e2 [3].

B18: 013S-H04 (HC SEQ ID NO 20) (VHH)
VHH: AVQLVDSGGGLVQAGGSLRLSCAVSGRTFSMYDMGWFRQAPGKEREFVASIRWSSGNTWYADSMKGRFTISRDNAKNTVYLQMNSLKPEDTAVYYCYANIYYTRRAPEEYWGQGTLVTVSS
Regarding B18, in the test with LRP6E3E4_O75581_631-1246 [2], the Kd is < 500 nM.

B19: 009S-H03 (VHH)
VHH: DVQLVESGGGLVQAGESLRLSCAASGSIFSINTMGWYRQAPGKERELVAVITSGGKTVYADSVKGRFTITEDAAKNTVYLQMNSLKAEDTAVYYCYADSRSSWYDEYLEHWGQGTLVTVSS
B19: the Kd with LRP6e1e2 [4], with LRP6E3E4_O75581_631-1246 [1] and in the test with LRP6e1e2 [3] was < 500 nM in each case.

B20: 013S-C05 (HC SEQ ID NO 22) (VHH)
VHH: EVQLVESGGGLVQPGGSLRLSCAVSRNIFPIDDMSWYRQAPGKQRELVATVTSGGRINYADSVKGRFTISRDGARRTIDLQMNNLKPEDTAVYYCNVDRTLYGKYKEYWGQGTLVTVSS
For the molecule B20, the Kd with LRP6E3E4_O75581_631-1246 [2] is < 500 nM.
